Source: publication PMC6445466 (2019)

B1: BAD16-C (residues 204-352, B. afzelii strain PGau) (domain or fragment)
chain: SNRYESYLEGVKYNVSSAIKTIVKIYDNYTLLSTKQTQMYSTRLDNLAKAKAREEAKKFTKEELEKDLKTLLNYIQVSARTATNFVYAREIYSKRKLDAIETEIKNLVLKIKGQSDLYEAYKAIVRSILLMKDSLKIIEIVIDKNGVWY

How the values were obtained:
[1] = biological target: human C1 complex (human, UniProt P02745 23-245; P02746 28-253; P02747 29-245); test: SPR
[2] = biological target: B1; test: SPR

Binder | Kd [1] | Kd [2]
B1 | 5.4 nM | –
human C1r, full-length enzyme (enzyme) SIPIPQKLFGEVTSPLFPKPYPNNFETTTVITVPTGYRVKLVFQQFDLEPSEGCFYDYVKISADKKSLGRFCGQLGSPLGNPPGKKEFMSQGNKMLLTFHTDFSNEENGTIMFYKGFLAYYQAVDLDECASRSKSGEEDPQPQCQHLCHNYVGGYFCSCRPGYELQEDTHSCQAECSSELYTEASGYISSLEYPRSYPPDLRCNYSIRVERGLTLHLKFLEPFDIDDHQQVHCPYDQLQIYANGKNIGEFCGKQRPPDLDTSSNAVDLLFFTDESGDSRGWKLRYTTEIIKCPQPKTLDEFTIIQNLQPQYQFRDYFIATCKQGYQLIEGNQVLHSFTAVCQDDGTWHRAMPRCKIKDCGQPRNLPNGDFRYTTTMGVNTYKARIQYYCHEPYYKMQTRAGSRESEQGVYTCTAQGIWKNEQKGEKIPRCLPVCGKPVNPVEQRQRIIGGQKAKMGNFPWQVFTNIHGRGGGALLGDRWILTAAHTLYPKEHEAQSNASLDVFLGHTNVEELMKLGNHPIRRVSVHPDYRQDESYNFEGDIALLELENSVTLGPNLLPICLPDNDTFYDLGLMGYVSGFGVMEEKIAHDLRFVRLPVANPQACENWLRGKNRMDVFSQNMFCAGHPSLKQDACQGDSGGVFAVRDPNTDRWVATGIVSWGIGCSRGYGFYTKVLNYVDWIKKEMEEED | – | 2.2 nM
BBK32-C (residues 206-354, B. burgdorferi strain B31) (domain or fragment) SNRYQSYLEGVKYNVDSAIQTITKIYNTYTLFSTKLTQMYSTRLDNFAKAKAKEEAAKFTKEDLEKNFKTLLNYIQVSVKTAANFVYINDTHAKRKLENIEAEIKTLIAKIKEQSNLYEAYKAIVTSILLMRDSLKEVQGIIDKNGVWY | 6 nM | –
